Assay [1] concerns the target pertussis toxin holotoxin (Bordetella pertussis) (UniProt P04977). As to the kind of experiment: cell-based or functional assay.
The target is the same in assay [2]. Put plainly: competition ELISA (Friguet), 5 nM antibody, soluble PT. On the technique in general: In an ELISA, binding on a coated surface is turned into a signal by an enzyme label.
The target of assay [3] is pertussis toxin holotoxin (Bordetella pertussis), P04977. Particulars: remark: other sources report otherwise.

Broadly, the Kd is a measure of binding affinity in units of concentration. The low end stands for a tighter complex, the high end for a looser complex.

Turning to 1B7 F(ab)2, the In Vitro Neutralization (nM), minimum protective concentration, CHO clustering assay in assay [1] worked out at 15 nM.
For 11E6 Fab, the In Vitro Neutralization (nM), minimum protective concentration, CHO clustering assay in assay [1] worked out at 42 nM. In assay [2], this molecule gave a Kd of 9.3 nM.
In assay [1], 11E6 scAb (scFv) gave an In Vitro Neutralization (nM), minimum protective concentration, CHO clustering assay of 377 nM. The molecule further gave a Kd in assay [2] of 19 nM.

B1: 1B7 Fab (Fab)
chain: DIQMTQSPALMSASPGEKVTMTCSASSSVSFMYWYQQKPRSSPKPWIYLTSNLPSGVPARFSGSGSGTSYSLTISSMEAEDAATYYCQQWSSHPPTFGSGTKLEIKRGGGGSGGGGSGGGGSGGGGSEVQLQQSGSELVRPGASVKLSCKASGYKFTSYWMHWVKQRPGQGLEWIGNIFPGSGSTNYDEKFNSKATLTVDTSSNTAYMQLSSLTSEDSAVYYCTRWLSGAYFDYWGQGTTLTVSSASGA
In assay [3], B1 had a Kd of 2 nM. In other words, the single-digit nanomolar range.
